The test system of series [1] is Cc1cc2nc3c(=O)[nH]c(=O)nc-3n(C[C@H](O)[C@H](O)[C@H](O)COP(=O)(O)O)c2cc1C. Briefly: purified protein. As to conditions: NADPH varied 5-150 μM, 0.1 M sodium phosphate pH 7.0, 30 °C, sequential ternary-complex mechanism.
The subject of series [2] is NC(=O)C1=CN([C@@H]2O[C@H](COP(=O)(O)OP(=O)(O)OC[C@H]3O[C@@H](n4cnc5c(N)ncnc54)[C@H](OP(=O)(O)O)[C@@H]3O)[C@@H](O)[C@H]2O)C=CC1. Put plainly: purified protein. The settings on record: co-substrate FMN (varied), 0.1 M sodium phosphate pH 7.0, 30 °C, sequential ternary-complex mechanism.
For series [3], the target named is Paracoccus denitrificans ArsR1 (product of pden_3136), recombinant with N-terminal hexahistidine tag (Paracoccus denitrificans). Put plainly: SEC; Superose 12, 10 mM MOPS/0.1 M NaCl/15% glycerol pH 7.5, 0.5 mL/min; 500 μL of 40 μM ArsR1 loaded, untreated; calibrated with ribonuclease A, chymotrypsinogen A, ovalbumin and albumin.
In series [4] the target is T1, ArsR1 (Paracoccus denitrificans, UniProt A1B6S3).
T1 construct: gene Pden_3136
Put plainly: size-exclusion chromatography: dimer to monomer; also EMSA and fluorescence anisotropy: release from operator DNA. As to conditions: 0.1 mM arsenite, 10 mM MOPS/0.1 M NaCl/15% glycerol pH 7.5. The series is classed as binding. Background: Size exclusion chromatography separates by hydrodynamic size, large species first.

For series [5], the target named is Paracoccus denitrificans ArsH (Pden_3133 protein), recombinant N-His6-ArsH (Paracoccus denitrificans). Put plainly: crystal structure; X-ray, 2.6 Å; sitting-drop vapor diffusion at 25 °C; molecular replacement with S. flexneri ArsH; four monomers in the asymmetric unit; interfaces analysed with PISA.
The target of series [6] is T2, ArsR1 (Paracoccus denitrificans, UniProt A1B6S3 1-119).
T2 sequence: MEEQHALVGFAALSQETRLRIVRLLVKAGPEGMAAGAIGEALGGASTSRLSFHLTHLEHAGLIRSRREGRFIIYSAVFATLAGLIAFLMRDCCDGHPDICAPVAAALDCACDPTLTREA
Put plainly: fluorescence anisotropy; Anisotropy: 10 mM MOPS, 0.1 M NaCl, 15% glycerol, pH 7.5 (Methods; Figure 9 legend says pH 7.0), 30 °C, 25 nM DNA; EMSA: 10 mM Tris-HCl, 50 mM NaCl, 0.5 mM EDTA, pH 8.0, room temperature, 10 µM DNA and 10 µM ArsR. The settings on record: protein: recombinant; tags: N-terminal His6 (pET100/D-TOPO); chain copies: 2; label: 5'-FAM on strand 1; blunt. For orientation: In fluorescence polarisation assays a small probe gives low polarisation when free and higher when bound to something large.

Series [7] deals with T3, ArsR2 (Paracoccus denitrificans, UniProt A1B7C2 1-120).
T3 sequence: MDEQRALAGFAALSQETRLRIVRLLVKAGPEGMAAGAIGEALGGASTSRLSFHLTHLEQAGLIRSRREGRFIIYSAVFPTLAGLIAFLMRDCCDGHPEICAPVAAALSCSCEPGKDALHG
The description is as above. The settings on record: protein: recombinant; tags: N-terminal His6 (pET100/D-TOPO); chain copies: 2; label: 5'-FAM on strand 1; blunt.

Usually Km stands for the concentration of substrate that gives half-maximal velocity. A word on the kcat: it is the number of substrate molecules converted per active site and unit of time at saturation. By stoichiometry N is commonly meant the number of molecules, sites or subunits per partner or assembly. In general, Kd refers to the constant that tells how readily two partners part at equilibrium.

For the molecule “ArsH (Pden_3133; N-His6-ArsH) (Paracoccus denitrificans PD1222)”, in series [1], the Km came out at 9.3 ± 0.7 µM and the kcat turned out to be 12.6 ± 0.4 s⁻¹. In series [2], the Michaelis constant (Km) was 12 ± 2 µM and the kcat turned out to be 12.6 ± 0.4 s⁻¹.

Consider “Paracoccus denitrificans ArsR1 (product of pden_3136), recombinant with N-terminal hexahistidine tag (natural protein)”, for which the stoichiometry N in series [3] is 2.

Consider `O[As](O)O` [sodium arsenite], for which the “size-exclusion chromatography: dimer to monomer; also EMSA and fluorescence anis” value in series [4] is recorded as “arsenite or diamide-treated ArsR eluted at the monomer size”.

With “Paracoccus denitrificans ArsH (Pden_3133 protein), recombinant N-His6-ArsH (from UniProt A0A9X7N4T4 1-238) (enzyme)”, the stoichiometry N in series [5] came out at 4.

B1: PDNA2 (dsDNA)
DNA 1: ATCAACATATCTTGAGAGGTTGATTCG
DNA 2: CGAATCAACCTCTCAAGATATGTTGAT
As to B1, the Kd was 26 ± 4 nM in series [6] and 140 ± 10 nM in series [7].

B2: PDNA1 (dsDNA)
DNA 1: CTCAACATATCTTGAGAGGTTGATTCG
DNA 2: CGAATCAACCTCTCAAGATATGTTGAG
B2: the results for the Kd in series [6] and in series [7] were 9 ± 1 nM and 130 ± 20 nM, respectively.
